No end group written: not given here.
Key:
human RXFP3 [1] = molecular target: T1, human RXFP3 (Homo sapiens, UniProt Q9NSD7); test: Receptor binding assay, competition with NanoLuc-conjugated R3/I5 tracer; details: for pIC50 RXFP3: HEK293T cells transiently overexpressing human RXFP3, 0.5 nM NanoLuc-conjugated R3/I5 tracer, 21 °C, 2 h, mean ± SE, n = 3, SEM
T1 construct: expressed in transfected cells; host or cells: HEK293T
T1 sequence (Q9NSD7 1-469): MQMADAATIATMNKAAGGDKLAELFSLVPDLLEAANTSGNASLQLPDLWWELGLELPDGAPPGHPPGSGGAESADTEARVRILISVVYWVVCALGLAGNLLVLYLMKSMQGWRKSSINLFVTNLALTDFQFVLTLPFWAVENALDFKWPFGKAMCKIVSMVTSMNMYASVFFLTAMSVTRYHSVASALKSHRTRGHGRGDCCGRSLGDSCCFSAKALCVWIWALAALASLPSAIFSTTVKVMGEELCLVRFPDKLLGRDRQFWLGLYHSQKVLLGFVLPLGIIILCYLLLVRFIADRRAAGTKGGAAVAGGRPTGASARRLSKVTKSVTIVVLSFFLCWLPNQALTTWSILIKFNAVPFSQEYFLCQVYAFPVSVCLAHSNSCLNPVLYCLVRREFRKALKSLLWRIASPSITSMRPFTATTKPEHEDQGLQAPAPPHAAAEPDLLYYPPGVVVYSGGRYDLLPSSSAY
Procedure, shortened: (§1)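 HEK293T cells transiently expressing human RXFP3 or RXFP4 were incubated with 0.5 nM NanoLuc-conjugated R3/I5 tracer plus competitor in serum-free DMEM with 1% BSA, 2 h at 21 °C. Nonspecific binding used 1.0 μM human relaxin-3. After washing and lysis, bioluminescence was read and curves fitted sigmoidally (n = 3).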

human RXFP4 [2] = molecular target: T2, human RXFP4 (Homo sapiens, UniProt Q8TDU9); test: as above; details: for pIC50 RXFP4: HEK293T cells transiently overexpressing human RXFP4, 0.5 nM NanoLuc-conjugated R3/I5 tracer, 21 °C, 2 h, mean ± SE, n = 3, SEM; for fold lower binding potency towards RXFP4 compared with wild-type INSL5: lower than wild-type INSL5
T2 construct: expressed in transfected cells; host or cells: HEK293T
T2 sequence (Q8TDU9 whole entry): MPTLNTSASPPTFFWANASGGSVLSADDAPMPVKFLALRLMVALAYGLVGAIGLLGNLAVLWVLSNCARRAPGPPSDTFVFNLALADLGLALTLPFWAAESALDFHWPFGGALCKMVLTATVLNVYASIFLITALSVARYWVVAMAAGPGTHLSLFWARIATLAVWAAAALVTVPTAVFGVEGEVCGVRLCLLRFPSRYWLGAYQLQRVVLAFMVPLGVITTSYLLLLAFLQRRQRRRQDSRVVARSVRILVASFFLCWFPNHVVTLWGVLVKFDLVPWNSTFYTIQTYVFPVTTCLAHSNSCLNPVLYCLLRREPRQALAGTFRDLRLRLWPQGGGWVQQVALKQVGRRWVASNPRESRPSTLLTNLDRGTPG
Procedure, shortened: as §1

human RXFP3 [3] = molecular target: T1, human RXFP3; test: Receptor activation assay, CRE-controlled NanoLuc reporter; format: cell-based; details: for pEC50 RXFP3: HEK293T cells cotransfected with human RXFP3 and CRE-controlled NanoLuc reporter, 1.0 μM forskolin, 37 °C, 4 h, mean ± SE, n = 3, N.D., not detectable; for activation potency towards RXFP3, result in words: CRE-controlled NanoLuc reporter, HEK293T cells, human RXFP3
human RXFP4 [4] = molecular target: T2, human RXFP4; test: as above; format: cell-based; details: for pEC50 RXFP4: HEK293T cells cotransfected with human RXFP4 and CRE-controlled NanoLuc reporter, 1.0 μM forskolin, 37 °C, 4 h, mean ± SE, n = 3, SEM

Substance | pIC50 RXFP3 (human RXFP3 [1]) | pIC50 RXFP4 (human RXFP4 [2]) | fold lower binding potency towards RXFP4 compared with wild-type INSL5 (human RXFP4 [2]) | pEC50 RXFP3 (human RXFP3 [3]) | fold lower activation potency towards RXFP3 than its parent mutants (human RXFP3 [3]; lower than parent mutants [L(B9)R]INSL5 and [Y(B17)F]INSL5) | pEC50 RXFP4 (human RXFP4 [4]) | fold higher binding potency towards RXFP3 than wild-type INSL5 (human RXFP3 [1]; higher than wild-type INSL5) | pEC50 RXFP3 (human RXFP3 [3]; SEM) | activation potency towards RXFP3, result in words (human RXFP3 [3]) | fold lower binding potency towards RXFP3 compared with wild-type INSL5 (human RXFP3 [1]; lower than wild-type INSL5) | fold lower activation potency towards RXFP4 compared with INSL5 (human RXFP4 [4]; lower than wild-type INSL5) | fold lower binding affinity for RXFP3 than relaxin-3 (human RXFP3 [1]; lower than relaxin-3)
[L(B9)R,Y(B17)F]INSL5: recombinant mature two-chain INSL5 mutant (Insulin-like peptide INSL5 B … KESVRLCGREYIRTVIFICASSRW; Insulin-like peptide INSL5 A … QDLQTLCCTDGCSMTDLSALC; ends and bridges not checked; cysteine pairing not given here; UniProt Q9Y5Q6 23-46; Q9Y5Q6 115-135, looked up, variant L9R Y17F) | 8.17 ± 0.04 | 7.33 ± 0.03 | ~ 3 fold | <6 | ~ 10 fold | 9.20 ± 0.03 |  |  |  |  |  | 
[L(B9)R]INSL5: recombinant mature two-chain INSL5 mutant (Insulin-like peptide INSL5 B … KESVRLCGREYIRTVIYICASSRW; Insulin-like peptide INSL5 A … QDLQTLCCTDGCSMTDLSALC; ends and bridges not checked; cysteine pairing not given here; UniProt Q9Y5Q6 23-46; Q9Y5Q6 115-135, looked up, variant L9R) | 7.87 ± 0.04 | 7.85 ± 0.03 |  |  |  | 9.87 ± 0.04 | ~ 4 fold | 7.21 ± 0.04 |  |  |  | 
[T(B14)A]INSL5: recombinant mature two-chain INSL5 mutant (Insulin-like peptide INSL5 B … KESVRLCGLEYIRAVIYICASSRW; Insulin-like peptide INSL5 A … QDLQTLCCTDGCSMTDLSALC; ends and bridges not checked; cysteine pairing not given here; UniProt Q9Y5Q6 23-46; Q9Y5Q6 115-135, looked up, variant T14A) | 7.06 ± 0.03 | 7.57 ± 0.05 |  |  |  | 9.05 ± 0.04 |  |  | no detectable activation potency |  |  | 
[Y(B17)F]INSL5: recombinant mature two-chain INSL5 mutant (Insulin-like peptide INSL5 B … KESVRLCGLEYIRTVIFICASSRW; Insulin-like peptide INSL5 A … QDLQTLCCTDGCSMTDLSALC; ends and bridges not checked; cysteine pairing not given here; UniProt Q9Y5Q6 23-46; Q9Y5Q6 115-135, looked up, variant Y17F) | 6.77 ± 0.05 | 7.23 ± 0.03 | ~ 3 fold |  |  | 8.40 ± 0.09 |  | 6.83 ± 0.08 |  | ~ 3 fold | ~ 9 fold | 
insulin-like peptide 5 (Insulin-like peptide INSL5 B … KESVRLCGLEYIRTVIYICASSRW; Insulin-like peptide INSL5 A … QDLQTLCCTDGCSMTDLSALC; UniProt Q9Y5Q6 23-46; Q9Y5Q6 115-135, looked up) [recombinant mature two-chain human INSL5, cognate agonist of RXFP4, reference compound] | 7.26 ± 0.05 | 7.75 ± 0.02 |  |  |  | 9.36 ± 0.06 |  |  | no detectable activation potency |  |  | ~ 27 fold

Source: paper PMC4939597, “Mechanism for insulin-like peptide 5 distinguishing the homologous relaxin family peptide receptor 3 and 4” (Scientific Reports, 2016)
